Key:
[1] = molecular target: T1, rat semaphorin receptor 1 (rSR1), full length, expressed on cells (rat, UniProt Q9QWJ9 22-922); assay: binding to transfected COS-7 cells
T1 construct: also called rat SR1; p28
T1 sequence: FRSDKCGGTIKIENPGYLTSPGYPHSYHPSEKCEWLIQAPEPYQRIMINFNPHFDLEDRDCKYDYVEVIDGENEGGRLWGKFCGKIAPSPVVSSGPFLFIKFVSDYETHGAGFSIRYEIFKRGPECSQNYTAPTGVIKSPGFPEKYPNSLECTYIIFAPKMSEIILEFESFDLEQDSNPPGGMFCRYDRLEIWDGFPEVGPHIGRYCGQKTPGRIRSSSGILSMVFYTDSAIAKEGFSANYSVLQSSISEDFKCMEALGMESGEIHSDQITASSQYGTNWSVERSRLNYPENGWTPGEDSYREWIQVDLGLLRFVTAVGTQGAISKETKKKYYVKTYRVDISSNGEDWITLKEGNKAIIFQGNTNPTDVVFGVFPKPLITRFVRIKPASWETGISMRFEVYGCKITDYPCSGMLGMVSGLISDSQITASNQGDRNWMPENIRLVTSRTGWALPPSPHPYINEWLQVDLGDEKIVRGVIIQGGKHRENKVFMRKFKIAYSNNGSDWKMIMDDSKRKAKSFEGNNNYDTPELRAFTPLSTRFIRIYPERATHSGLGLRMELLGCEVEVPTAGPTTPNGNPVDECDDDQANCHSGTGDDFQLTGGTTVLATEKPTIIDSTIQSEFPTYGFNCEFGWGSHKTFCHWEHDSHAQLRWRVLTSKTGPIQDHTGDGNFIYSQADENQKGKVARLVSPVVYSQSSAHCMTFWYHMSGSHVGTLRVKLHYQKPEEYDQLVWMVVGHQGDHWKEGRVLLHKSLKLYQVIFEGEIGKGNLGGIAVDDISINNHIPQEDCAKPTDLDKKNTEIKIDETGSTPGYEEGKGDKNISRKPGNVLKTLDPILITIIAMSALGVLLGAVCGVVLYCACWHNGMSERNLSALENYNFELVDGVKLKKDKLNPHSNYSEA

[2] = molecular target: T2, mouse neuropilin-2(a0), myc-tagged, expressed in COS-7 cells (mouse, UniProt O35375 21-931); assay: AP histochemistry on transfected COS cells
T2 construct: also called SR2(a)0; m-npn-2
T2 sequence: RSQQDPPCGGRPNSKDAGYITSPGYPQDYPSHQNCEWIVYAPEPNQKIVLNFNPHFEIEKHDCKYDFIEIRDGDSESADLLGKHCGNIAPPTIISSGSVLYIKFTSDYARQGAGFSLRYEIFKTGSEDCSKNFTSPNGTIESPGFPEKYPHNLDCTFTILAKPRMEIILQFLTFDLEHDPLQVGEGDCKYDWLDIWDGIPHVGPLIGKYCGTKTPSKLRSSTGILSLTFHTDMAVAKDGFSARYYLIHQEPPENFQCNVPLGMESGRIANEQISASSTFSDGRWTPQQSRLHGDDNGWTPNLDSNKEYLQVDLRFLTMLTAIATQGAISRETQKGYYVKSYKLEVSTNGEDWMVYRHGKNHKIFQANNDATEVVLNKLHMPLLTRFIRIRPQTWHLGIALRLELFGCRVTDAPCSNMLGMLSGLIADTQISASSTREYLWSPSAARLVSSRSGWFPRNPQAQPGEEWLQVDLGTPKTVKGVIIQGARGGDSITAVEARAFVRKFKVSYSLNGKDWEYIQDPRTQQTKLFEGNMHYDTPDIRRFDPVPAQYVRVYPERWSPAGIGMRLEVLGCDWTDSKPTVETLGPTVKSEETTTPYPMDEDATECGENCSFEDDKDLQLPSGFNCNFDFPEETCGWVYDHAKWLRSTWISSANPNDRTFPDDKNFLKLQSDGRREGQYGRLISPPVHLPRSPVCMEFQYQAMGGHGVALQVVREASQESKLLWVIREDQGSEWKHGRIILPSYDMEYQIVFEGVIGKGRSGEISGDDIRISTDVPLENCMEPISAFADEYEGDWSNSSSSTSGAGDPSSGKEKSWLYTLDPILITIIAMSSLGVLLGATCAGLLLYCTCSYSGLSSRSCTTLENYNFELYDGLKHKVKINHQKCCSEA

[3] = molecular target: T3, mouse neuropilin-2(a5), myc-tagged, expressed in COS-7 cells (mouse, UniProt O35375 21-931); assay: AP histochemistry on transfected COS cells
T3 construct: also called a5 isoform of neuropilin-2; SR2(a)5
T3 sequence: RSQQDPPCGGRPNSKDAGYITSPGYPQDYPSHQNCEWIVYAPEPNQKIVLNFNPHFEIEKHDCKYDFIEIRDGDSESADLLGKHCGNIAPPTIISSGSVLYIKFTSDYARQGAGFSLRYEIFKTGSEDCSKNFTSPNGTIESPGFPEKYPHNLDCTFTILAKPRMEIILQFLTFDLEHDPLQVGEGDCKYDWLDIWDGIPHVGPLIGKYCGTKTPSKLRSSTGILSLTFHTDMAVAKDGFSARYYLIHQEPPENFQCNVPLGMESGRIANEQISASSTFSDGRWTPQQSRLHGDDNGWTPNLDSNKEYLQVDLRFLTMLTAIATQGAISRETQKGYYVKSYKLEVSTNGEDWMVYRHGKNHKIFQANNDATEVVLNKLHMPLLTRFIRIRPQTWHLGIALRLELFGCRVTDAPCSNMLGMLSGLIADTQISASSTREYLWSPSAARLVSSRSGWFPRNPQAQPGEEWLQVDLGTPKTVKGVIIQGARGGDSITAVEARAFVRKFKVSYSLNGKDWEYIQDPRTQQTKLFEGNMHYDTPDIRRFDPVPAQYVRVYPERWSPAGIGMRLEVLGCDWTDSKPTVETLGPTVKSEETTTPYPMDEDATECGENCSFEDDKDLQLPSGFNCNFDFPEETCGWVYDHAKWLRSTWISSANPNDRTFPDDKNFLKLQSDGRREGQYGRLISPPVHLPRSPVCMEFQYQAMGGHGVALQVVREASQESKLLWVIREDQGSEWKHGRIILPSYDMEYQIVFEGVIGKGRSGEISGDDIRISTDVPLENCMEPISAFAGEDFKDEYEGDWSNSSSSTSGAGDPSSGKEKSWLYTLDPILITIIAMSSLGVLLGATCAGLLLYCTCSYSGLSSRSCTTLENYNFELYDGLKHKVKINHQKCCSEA

[4] = molecular target: T4, mouse neuropilin-2(a22), myc-tagged, expressed in COS-7 cells (mouse, UniProt O35375 21-931); assay: AP histochemistry on transfected COS cells
T4 construct: also called SR2(a)22
T4 sequence: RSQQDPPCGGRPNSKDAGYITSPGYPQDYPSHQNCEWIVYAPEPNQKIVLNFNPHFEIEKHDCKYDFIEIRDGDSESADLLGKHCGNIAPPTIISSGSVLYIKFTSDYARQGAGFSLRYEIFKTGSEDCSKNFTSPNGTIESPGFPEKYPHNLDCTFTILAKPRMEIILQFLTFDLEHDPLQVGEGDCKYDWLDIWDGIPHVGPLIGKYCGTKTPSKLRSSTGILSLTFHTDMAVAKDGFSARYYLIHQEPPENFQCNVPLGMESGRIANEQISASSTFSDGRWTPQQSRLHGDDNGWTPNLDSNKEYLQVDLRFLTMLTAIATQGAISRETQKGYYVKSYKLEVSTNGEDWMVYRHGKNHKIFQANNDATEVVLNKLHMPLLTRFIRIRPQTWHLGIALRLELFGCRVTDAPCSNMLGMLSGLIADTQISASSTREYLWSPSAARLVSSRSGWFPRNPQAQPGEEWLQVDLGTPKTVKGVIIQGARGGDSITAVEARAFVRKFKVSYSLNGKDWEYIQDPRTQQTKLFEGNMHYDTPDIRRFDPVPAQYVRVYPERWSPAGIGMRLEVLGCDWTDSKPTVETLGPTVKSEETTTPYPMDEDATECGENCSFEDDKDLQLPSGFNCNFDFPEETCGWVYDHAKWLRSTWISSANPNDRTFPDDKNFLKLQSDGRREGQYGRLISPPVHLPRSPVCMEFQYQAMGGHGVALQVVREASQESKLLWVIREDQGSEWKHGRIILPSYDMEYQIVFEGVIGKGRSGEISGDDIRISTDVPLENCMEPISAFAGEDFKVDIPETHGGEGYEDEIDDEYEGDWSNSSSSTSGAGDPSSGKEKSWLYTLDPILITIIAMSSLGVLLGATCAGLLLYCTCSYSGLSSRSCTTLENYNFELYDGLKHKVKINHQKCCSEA

- binding result [1]: no binding
- binding result [2]: no binding
- binding result [3]: no binding
- binding result [4]: no binding
B1: alkaline phosphatase (AP) alone (enzyme, UniProt P05187 23-511, looked up)
chain: IIPVEEENPDFWNREAAEALGAAKKLQPAQTAAKNLIIFLGDGMGVSTVTAARILKGQKKDKLGPEIPLAMDRFPYVALSKTYNVDKHVPDSGATATAYLCGVKGNFQTIGLSAAARFNQCNTTRGNEVISVMNRAKKAGKSVGVVTTTRVQHASPAGTYAHTVNRNWYSDADVPASARQEGCQDIATQLISNMDIDVILGGGRKYMFRMGTPDPEYPDDYSQGGTRLDGKNLVQEWLAKRQGARYVWNRTELMQASLDPSVTHLMGLFEPGDMKYEIHRDSTLDPSLMEMTEAALRLLSRNPRGFFLFVEGGRIDHGHHESRAYRALTETIMFDDAIERAGQLTSEEDTLSLVTADHSHVFSFGGYPLRGSSIFGLAPGKARDRKAYTVLLYGNGPGYVLKDGARPDVTESESGSPEYRQQSAVPLDEETHAGEDVAVFARGPQAHLVHGVQEQTFIAHVMAFAACLEPYTACDLAPPAGTTDAAHPG
notes: Control protein; also called alkaline phosphatase protein

— US6623738 (University of California, dated 2003)
